Assay results published in US20240247077A1 (CLEMSON UNIVERSITY RESEARCH FOUNDATION, published 2024).

What was measured:
[1] = molecular target: T1, recombinant human CYP1A1 expressed in HEK cells (human (H. sapiens), UniProt P04798 1-512); assay: immunoblot, HEK cell lysate with recombinant human CYP1A1
T1 construct: Bought over-expression lysate; also called OriGene LC400170
T1 sequence (looked up): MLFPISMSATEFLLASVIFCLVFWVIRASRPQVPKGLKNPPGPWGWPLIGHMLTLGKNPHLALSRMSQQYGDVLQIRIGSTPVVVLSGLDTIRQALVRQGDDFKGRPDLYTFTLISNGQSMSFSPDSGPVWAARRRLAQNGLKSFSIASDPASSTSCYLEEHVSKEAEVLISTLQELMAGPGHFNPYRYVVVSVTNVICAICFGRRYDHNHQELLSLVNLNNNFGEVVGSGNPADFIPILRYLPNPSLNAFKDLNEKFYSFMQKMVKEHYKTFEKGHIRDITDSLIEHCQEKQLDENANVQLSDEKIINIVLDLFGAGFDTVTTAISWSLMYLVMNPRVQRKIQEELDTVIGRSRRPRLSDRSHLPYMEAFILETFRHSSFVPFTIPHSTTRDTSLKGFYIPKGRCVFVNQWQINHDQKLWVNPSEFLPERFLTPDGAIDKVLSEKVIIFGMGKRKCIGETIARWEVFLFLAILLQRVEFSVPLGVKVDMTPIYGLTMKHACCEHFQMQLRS
Method: HEK cells were grown in media only as a cell-specific source of control cell lysate for comparison with over-expressed recombinant CYP1A1 in HEK cell lysates from the supplier.
Media was then removed from cells, replaced with 0.25% trypsin, and incubated until cells lifted from attachment. Cells were then pelleted by centrifugation to obtain a dry pellet, covered with ice-cold 300-400 μL RIPA buffer (Thermo Fisher, Waltham, MA, USA) supplemented with 2×HALT protease inhibitor cocktail (Pierce), followed by resuspension using a vortex device and placement on ice for 20 min. Suspensions were then sonicated, transferred to 1.5 mL tubes, and centrifuged 12,000×g for 20 min. Overlying supernatants were removed and transferred to clean tubes and the protein content quantified. Lysate protein concentration for each cell line, rat S9 fractions, and rainbow trout microsomes were matched between treated and controls, then boiled in reducing sample buffer for 7 min. Forty micrograms of each sample was then subjected to SDS-PAGE using 10-lane, 50 μL well capacity 4-20% pre-cast gels (Biorad, Richmond, CA, USA) and immunoblotting using standard procedures incorporating PDVF membranes. Immunoblots were blocked overnight with 10% horse serum (Gibco) in 0.01 M phosphate buffered saline (PBS) containing 0.05% tween twenty (PBS-T). […]

[2] = molecular target: T2, mouse CYP1A (mouse (M. musculus), UniProt P00184 1-524); assay: IHC, liver of PCB-126 treated mouse
T2 construct: Endogenous protein in Hepa1c1c7 cell lysate (immunoblot) and fixed liver (IHC); also called HEPA1C1C7; mouse hepatoma cell line CYP1A
T2 sequence (looked up): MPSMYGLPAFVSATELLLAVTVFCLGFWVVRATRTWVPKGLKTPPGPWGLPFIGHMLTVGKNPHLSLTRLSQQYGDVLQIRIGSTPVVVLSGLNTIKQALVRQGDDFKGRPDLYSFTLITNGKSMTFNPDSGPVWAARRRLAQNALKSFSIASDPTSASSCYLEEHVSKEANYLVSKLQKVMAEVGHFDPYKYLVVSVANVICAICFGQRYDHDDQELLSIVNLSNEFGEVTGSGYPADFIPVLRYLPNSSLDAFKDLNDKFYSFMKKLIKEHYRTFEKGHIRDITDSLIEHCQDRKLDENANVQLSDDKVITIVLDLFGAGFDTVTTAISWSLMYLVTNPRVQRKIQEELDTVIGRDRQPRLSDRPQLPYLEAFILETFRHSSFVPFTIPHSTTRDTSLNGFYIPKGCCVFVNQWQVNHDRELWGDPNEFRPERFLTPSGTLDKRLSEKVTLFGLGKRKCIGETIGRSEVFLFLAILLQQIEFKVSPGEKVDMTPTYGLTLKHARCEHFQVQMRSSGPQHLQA
Method: Subsequently, slides were immersed in pH 9 Tris-EDTA buffer while heating by microwave on 100% power for 5 min followed by cooling for 5 min, followed by a final 5 min 100% power, then a final 20 min cool-down period in the container at room temperature. After antigen retrieval, tissues on slides were encircled with a Liquid Blocker Super mini pen to isolate tissue slices. Thus, each slide was divided into sections where one section can act as a reagent control by withholding a primary antibody. Additional screening assays included isotype controls. Once slides were divided, all sections were treated to quench endogenous peroxidase activity for 30 min using 3% H₂O₂ in water. […] After blocking, avidin-then biotin-blocking steps (15 min each) were conducted to allow specificity to target molecules only for the avidin-biotin binding. Next, the antibody, as a hybridoma supernatant diluted 1:10 in PBS with 0.5% FBS, was added dropwise to the slides and incubated overnight at 4° C. or for 2 h at RT. After incubation, the slides were washed prior to addition of the secondary (biotinylated) antibody for a 30 min incubation at RT. After washing, Vectastain ABC reagent was added for 30 min prior to staining.

[3] = molecular target: T3, rat CYP1A (rat (R. norvegicus), UniProt P00185 2-524); assay: immunoblot, rat liver S9 fractions
T3 construct: Endogenous protein in liver S9 fraction, immunoblot; also called Rat liver S9 fraction, Arochlor-1254-induced
T3 sequence (looked up): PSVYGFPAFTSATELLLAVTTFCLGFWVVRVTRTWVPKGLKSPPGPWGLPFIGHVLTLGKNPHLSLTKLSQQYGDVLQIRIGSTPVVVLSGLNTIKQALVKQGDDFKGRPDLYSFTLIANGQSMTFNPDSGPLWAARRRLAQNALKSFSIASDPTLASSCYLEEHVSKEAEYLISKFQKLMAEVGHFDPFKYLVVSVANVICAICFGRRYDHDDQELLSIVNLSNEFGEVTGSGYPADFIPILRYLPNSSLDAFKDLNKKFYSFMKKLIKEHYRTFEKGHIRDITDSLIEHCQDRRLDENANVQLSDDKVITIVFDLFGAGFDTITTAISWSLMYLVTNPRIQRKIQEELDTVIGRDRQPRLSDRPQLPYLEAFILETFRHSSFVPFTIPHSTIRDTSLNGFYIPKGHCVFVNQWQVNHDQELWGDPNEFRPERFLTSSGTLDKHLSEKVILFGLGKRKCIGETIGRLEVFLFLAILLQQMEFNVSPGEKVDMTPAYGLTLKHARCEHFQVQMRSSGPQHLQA
Method: Lysate protein concentration for each cell line, rat S9 fractions, and rainbow trout microsomes were matched between treated and controls, then boiled in reducing sample buffer for 7 min. Forty micrograms of each sample was then subjected to SDS-PAGE using 10-lane, 50 μL well capacity 4-20% pre-cast gels (Biorad, Richmond, CA, USA) and immunoblotting using standard procedures incorporating PDVF membranes. Immunoblots were blocked overnight with 10% horse serum (Gibco) in 0.01 M phosphate buffered saline (PBS) containing 0.05% tween twenty (PBS-T). Membranes were washed once for 10 min with PBS-T, then probed for 2 h at room temperature (RT) with mAbs as confluent supernatants diluted 1:10 in PBS-T containing a final nominal concentration of 3 ug/mL antibody. […] After 3×washes with PBS-T, membranes were incubated with NBT-BCIP (Fisher Scientific, Pittsburgh, PA, USA) as the AP substrate and activity was visualized as dark blue banding of CYP1A at the expected size of approximately 55 kDa.

Measured: binding result

B1: mAb CRC4 (antibody, mouse IgG1, kappa, V domains shown)
VH: QVTLKESGPGILQPSQTLSLTCSFSGFSLSTSGMGVNWIRKPSGKGLEWLAHIFWDDDKRYNPSLKSRLTISKDTSRNQVFLMITSVDTADTATYYCASLAMDYWGQGTSVTVSS
VL: DIVMTQGASSVTVTPGESVSISCRSSKSLLHSNGRTFLYWFLQRPGQSPQLLIYRMSNLASGVPDRVSGSGSGTAFTLRISRVEAEDVGVYYCMQHLEYPFTFGGGTRLELKR
notes: Mouse IgG1 kappa from a hybridoma, used as confluent hybridoma supernatant (nominally 3 ug/mL after 1:10 dilution); also called monoclonal antibody CRC4; CRC4_1
binds: all assays above
